These results are taken from patent US20260209321A1 (SINGAPORE HEALTH SERVICES PTE, published 2026).

The target in assay [1] is T1, Peptide-biotin.
T1 construct: also called antigen
The assay is described as follows: SPR Biacore 8K affinity ranking; antibody Fc-captured, Peptide-biotin analyte, 1:1 fit. The procedure:
For affinity ranking, antibodies were captured on the sensor chip through Fc capture method. Peptide-biotin was used as the analyte. The surface was regenerated before the injection of another antibody. The process was repeated until all antibodies are analyzed. The off-rates of antibodies were obtained from fitting the experimental data locally to 1:1 interaction model using the Biacore 8K evaluation software. The antibodies were ranked by their dissociation rate constants (off-rates, kd). Based on the ranking result, the top 3 clones were selected.
Humanized antibodies were generated by replacing the framework regions (FRs) from mouse M4M antibody with counterparts from human, while maintaining the antibody's complementarity-determining regions (CDRs) binding regions. The antibody binding affinity of the chimeric and humanized antibodies was assessed by surface plasmon resonance (SPR) as shown in Table 1. Antibody clone A1 is the chimeric antibody and antibody clones A2-7 are humanized antibodies. Based on the results obtained from SPR, humanized clone A2 has the strongest SPR signal. For affinity ranking, antibodies were captured on the sensor chip through Fc capture method. Peptide-biotin was used as the analyte. The surface was regenerated before the injection of another antibody. The process was repeated until all antibodies are analyzed. The off-rates of antibodies were obtained from fitting the experimental data locally to 1:1 interaction model using the Biacore 8K evaluation software. The antibodies were ranked by their dissociation rate constants (off-rates, kd). Based on the ranking result, the top humanized clones were selected. […] Bolded and underlined amino acids correspond to the back mutation sites in the framework regions.

Assay [2] concerns the target T2, human TRPM4 expressed in transfected HEK 293 cells (human, UniProt Q8TD43 1-1214).
T2 construct: whole, on cells; also called transient receptor potential melastatin 4
Nature of the assay: immunofluorescent staining of HEK 293 cells transfected with human TRPM4; colocalization with WGA (surface TRPM4).

For assay [3], the target named is T1, Peptide-biotin. The assay is described as follows: SPR Biacore 8K, purified IgG Fc-captured, Peptide-biotin analyte, 1:1 fit. As for the experimental part: The affinity of purified antibody binding to Peptide-biotin was individually determined using a Surface Plasmon Resonance (SPR) biosensor, Biacore 8K (GE Healthcare). Antibodies were captured on the sensor chip through Fc capture method. Peptide-biotin was used as the analyte. The data of dissociation (kd) and association (ka) rate constants were obtained using Biacore 8K evaluation software. The equilibrium dissociation constants (KD) were calculated from the ratio of kd over ka.

T2 sequence (Q8TD43 whole entry): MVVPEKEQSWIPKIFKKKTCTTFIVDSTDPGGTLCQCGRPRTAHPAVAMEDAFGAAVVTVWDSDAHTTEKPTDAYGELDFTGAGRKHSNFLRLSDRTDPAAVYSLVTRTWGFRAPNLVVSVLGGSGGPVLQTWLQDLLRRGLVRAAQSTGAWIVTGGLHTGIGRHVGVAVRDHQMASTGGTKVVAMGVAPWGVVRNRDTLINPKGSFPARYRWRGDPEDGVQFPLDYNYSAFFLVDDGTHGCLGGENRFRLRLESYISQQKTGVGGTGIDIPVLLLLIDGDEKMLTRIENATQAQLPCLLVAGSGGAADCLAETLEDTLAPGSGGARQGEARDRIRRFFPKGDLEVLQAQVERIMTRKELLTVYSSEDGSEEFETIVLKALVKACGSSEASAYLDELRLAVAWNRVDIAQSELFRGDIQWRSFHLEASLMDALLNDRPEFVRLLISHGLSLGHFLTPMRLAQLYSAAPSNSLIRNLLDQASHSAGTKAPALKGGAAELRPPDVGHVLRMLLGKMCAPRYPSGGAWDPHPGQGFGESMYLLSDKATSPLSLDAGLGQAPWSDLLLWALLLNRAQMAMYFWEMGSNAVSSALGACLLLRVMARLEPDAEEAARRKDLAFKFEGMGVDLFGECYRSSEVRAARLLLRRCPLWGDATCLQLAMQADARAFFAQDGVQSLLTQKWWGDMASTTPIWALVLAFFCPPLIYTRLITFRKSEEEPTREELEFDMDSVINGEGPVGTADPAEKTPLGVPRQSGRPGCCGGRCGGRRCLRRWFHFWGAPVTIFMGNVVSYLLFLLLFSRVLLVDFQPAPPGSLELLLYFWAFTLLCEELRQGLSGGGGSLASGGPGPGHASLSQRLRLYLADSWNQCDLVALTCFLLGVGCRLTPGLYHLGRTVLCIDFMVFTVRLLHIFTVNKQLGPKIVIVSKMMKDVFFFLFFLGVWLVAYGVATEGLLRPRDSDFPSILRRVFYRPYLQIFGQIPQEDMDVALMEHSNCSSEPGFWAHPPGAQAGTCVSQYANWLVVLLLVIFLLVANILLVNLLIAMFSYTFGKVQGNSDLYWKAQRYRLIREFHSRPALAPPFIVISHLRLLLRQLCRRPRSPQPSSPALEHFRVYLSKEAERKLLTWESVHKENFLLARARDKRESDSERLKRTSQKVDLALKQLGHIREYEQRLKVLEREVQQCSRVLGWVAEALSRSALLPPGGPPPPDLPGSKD

B1: humanized anti-TRPM4 antibody clone A3 (VH1 + VL2) (antibody, V domains shown)
VH: QVQLQESGPGLVKPSQTLSLTCTVSGYSITSDYAWNWIRQHPGKGLEWIGYLSYSGVTSYNPSLKGRVTISVDTSKNQFSLKLSSVTAADTAVYYCARKGTYYRYEGSYWYFDVWGQGTTVTVSS
VL: DIQMTQSPSSLSASVGDRVTITCHANQNIDVWLSWYQQKPGKAPKLLIYKTSNLHTGVPSRFSGSGSGTDFTLTISSLQPEDIATYYCQQGQSYPLTFGGGTKLEIKR
notes: Full-length IgG, IgG1 heavy chain; also called VH1 + VL2 (A3)
As for B1, in the assay with Peptide-biotin [1], the affinity, expressed as Kd, was 9.81 nM; the koff – broadly, the first-order rate constant of dissociation – turned out to be 0.00321 s⁻¹; the kon (commonly the second-order rate constant of association) worked out at 327000 M⁻¹ s⁻¹. In addition, the binding result in assay [2] is recorded as “binds”.

B2: humanized anti-TRPM4 antibody VH3 + VL4 (antibody, V domains shown)
VH: QVQLQESGPGLVKPSQTLSLTCTVSGYSITSDYAWNWIRQHPGKGLQWMGYLSYSGVTSYNPSLKGRITISRDTSKNQFSLKLSSVTAADTAVYYCARKGTYYRYEGSYWYFDVWGQGTTVTVSS
VL: DIQMTQSPSSLSASVGDRVTITCHANQNIDVWLSWYQQKPGNAPKLLIYKTSNLHTGVPSRFSGSGSGTDFTLTISSLQPEDIATYYCQQGQSYPLTFGGGTKLEIKR
notes: Full-length IgG
With B2, in the assay with Peptide-biotin [1], the Kd (commonly a measure of binding affinity in units of concentration) is 2.22 nM, the koff was determined as 0.00135 s⁻¹ and the kon came to 608000 M⁻¹ s⁻¹.

B3: humanized anti-TRPM4 antibody VH2 + VL3 (antibody, V domains shown)
VH: QVQLQESGPGLVKPSQTLSLTCTVSGYSITSDYAWNWIRQHPGKGLEWMGYLSYSGVTSYNPSLKGRVTISRDTSKNQFSLKLSSVTAADTAVYYCARKGTYYRYEGSYWYFDVWGQGTTVTVSS
VL: DIQMTQSPSSLSASVGDRVTITCHANQNIDVWLSWYQQKPGNAPKLLIYKTSNLHTGVPSRFSGSGSGTDFTFTISSLQPEDIATYYCQQGQSYPLTFGGGTKLEIKR
notes: Full-length IgG
As to B3, in the assay with Peptide-biotin [1], binding was characterised by a dissociation constant (Kd) of 10.8 nM, the koff worked out at 0.00219 s⁻¹ and the kon was determined as 203000 M⁻¹ s⁻¹.

B4: humanized anti-TRPM4 antibody VH3 + VL2 (antibody, V domains shown)
VH: QVQLQESGPGLVKPSQTLSLTCTVSGYSITSDYAWNWIRQHPGKGLQWMGYLSYSGVTSYNPSLKGRITISRDTSKNQFSLKLSSVTAADTAVYYCARKGTYYRYEGSYWYFDVWGQGTTVTVSS
VL: DIQMTQSPSSLSASVGDRVTITCHANQNIDVWLSWYQQKPGKAPKLLIYKTSNLHTGVPSRFSGSGSGTDFTLTISSLQPEDIATYYCQQGQSYPLTFGGGTKLEIKR
notes: Full-length IgG
Take B4: in the assay with Peptide-biotin [1], the Kd is 4.53 nM, the koff turned out to be 0.00198 s⁻¹ and the kon came to 438000 M⁻¹ s⁻¹.

B5: humanized anti-TRPM4 antibody VH3 + VL1 (antibody, V domains shown)
VH: QVQLQESGPGLVKPSQTLSLTCTVSGYSITSDYAWNWIRQHPGKGLQWMGYLSYSGVTSYNPSLKGRITISRDTSKNQFSLKLSSVTAADTAVYYCARKGTYYRYEGSYWYFDVWGQGTTVTVSS
VL: DIQMTQSPSSLSASVGDRVTITCHANQNIDVWLSWYQQKPGKAPKLLIYKTSNLHTGVPSRFSGSGSGTDFTFTISSLQPEDIATYYCQQGQSYPLTFGGGTKLEIKR
notes: Full-length IgG
In the assay with Peptide-biotin [1], B5 came in with a Kd of 4.36 nM, a koff of 0.00149 s⁻¹ and a kon of 342000 M⁻¹ s⁻¹.

B6: humanized anti-TRPM4 antibody VH4 + VL2 (antibody, V domains shown)
VH: QVQLQESGPGLVKPSQTLSLTCTVSGYSITSDYAWNWIRQHPGKGLQWMGYLSYSGVTSYNPSLKGRITISRDTSKNQFFLKLSSVTAADTAVYYCARKGTYYRYEGSYWYFDVWGQGTTVTVSS
VL: DIQMTQSPSSLSASVGDRVTITCHANQNIDVWLSWYQQKPGKAPKLLIYKTSNLHTGVPSRFSGSGSGTDFTLTISSLQPEDIATYYCQQGQSYPLTFGGGTKLEIKR
notes: Full-length IgG
In the assay with Peptide-biotin [1], B6 had a Kd of 4.37 nM, a koff of 0.00132 s⁻¹ and a kon of 303000 M⁻¹ s⁻¹.

B7: humanized anti-TRPM4 antibody VH2 + VL4 (antibody, V domains shown)
VH: QVQLQESGPGLVKPSQTLSLTCTVSGYSITSDYAWNWIRQHPGKGLEWMGYLSYSGVTSYNPSLKGRVTISRDTSKNQFSLKLSSVTAADTAVYYCARKGTYYRYEGSYWYFDVWGQGTTVTVSS
VL: DIQMTQSPSSLSASVGDRVTITCHANQNIDVWLSWYQQKPGNAPKLLIYKTSNLHTGVPSRFSGSGSGTDFTLTISSLQPEDIATYYCQQGQSYPLTFGGGTKLEIKR
notes: Full-length IgG
For B7, in the assay with Peptide-biotin [1], the Kd amounted to 8.62 nM, the koff amounted to 0.00185 s⁻¹ and the kon was 215000 M⁻¹ s⁻¹.

B8: humanized anti-TRPM4 antibody VH3 + VL3 (antibody, V domains shown)
VH: QVQLQESGPGLVKPSQTLSLTCTVSGYSITSDYAWNWIRQHPGKGLQWMGYLSYSGVTSYNPSLKGRITISRDTSKNQFSLKLSSVTAADTAVYYCARKGTYYRYEGSYWYFDVWGQGTTVTVSS
VL: DIQMTQSPSSLSASVGDRVTITCHANQNIDVWLSWYQQKPGNAPKLLIYKTSNLHTGVPSRFSGSGSGTDFTFTISSLQPEDIATYYCQQGQSYPLTFGGGTKLEIKR
notes: Full-length IgG
For the molecule B8, in the assay with Peptide-biotin [1], binding was characterised by a dissociation constant (Kd) of 4.4 nM, the koff is 0.0018 s⁻¹ and the kon was 409000 M⁻¹ s⁻¹.

B9: humanized anti-TRPM4 antibody VH4 + VL4 (antibody, V domains shown)
VH: QVQLQESGPGLVKPSQTLSLTCTVSGYSITSDYAWNWIRQHPGKGLQWMGYLSYSGVTSYNPSLKGRITISRDTSKNQFFLKLSSVTAADTAVYYCARKGTYYRYEGSYWYFDVWGQGTTVTVSS
VL: DIQMTQSPSSLSASVGDRVTITCHANQNIDVWLSWYQQKPGNAPKLLIYKTSNLHTGVPSRFSGSGSGTDFTLTISSLQPEDIATYYCQQGQSYPLTFGGGTKLEIKR
notes: Full-length IgG
With B9, in the assay with Peptide-biotin [1], the affinity, expressed as Kd, was 4.43 nM; the koff was found to be 0.00201 s⁻¹; the kon worked out at 454000 M⁻¹ s⁻¹.

B10: humanized anti-TRPM4 antibody VH4 + VL3 (antibody, V domains shown)
VH: QVQLQESGPGLVKPSQTLSLTCTVSGYSITSDYAWNWIRQHPGKGLQWMGYLSYSGVTSYNPSLKGRITISRDTSKNQFFLKLSSVTAADTAVYYCARKGTYYRYEGSYWYFDVWGQGTTVTVSS
VL: DIQMTQSPSSLSASVGDRVTITCHANQNIDVWLSWYQQKPGNAPKLLIYKTSNLHTGVPSRFSGSGSGTDFTFTISSLQPEDIATYYCQQGQSYPLTFGGGTKLEIKR
notes: Full-length IgG
Consider B10, for which, in the assay with Peptide-biotin [1], the Kd is 4.32 nM, the koff came to 0.00143 s⁻¹ and the kon is 332000 M⁻¹ s⁻¹.

B11: humanized anti-TRPM4 antibody VH4 + VL1 (antibody, V domains shown)
VH: QVQLQESGPGLVKPSQTLSLTCTVSGYSITSDYAWNWIRQHPGKGLQWMGYLSYSGVTSYNPSLKGRITISRDTSKNQFFLKLSSVTAADTAVYYCARKGTYYRYEGSYWYFDVWGQGTTVTVSS
VL: DIQMTQSPSSLSASVGDRVTITCHANQNIDVWLSWYQQKPGKAPKLLIYKTSNLHTGVPSRFSGSGSGTDFTFTISSLQPEDIATYYCQQGQSYPLTFGGGTKLEIKR
notes: Full-length IgG
Regarding B11, in the assay with Peptide-biotin [1], the Kd was 4.47 nM, the koff amounted to 0.00136 s⁻¹ and the kon amounted to 305000 M⁻¹ s⁻¹.

B12: humanized anti-TRPM4 antibody clone A5 (VH1 + VL4) (antibody, V domains shown)
VH: QVQLQESGPGLVKPSQTLSLTCTVSGYSITSDYAWNWIRQHPGKGLEWIGYLSYSGVTSYNPSLKGRVTISVDTSKNQFSLKLSSVTAADTAVYYCARKGTYYRYEGSYWYFDVWGQGTTVTVSS
VL: DIQMTQSPSSLSASVGDRVTITCHANQNIDVWLSWYQQKPGNAPKLLIYKTSNLHTGVPSRFSGSGSGTDFTLTISSLQPEDIATYYCQQGQSYPLTFGGGTKLEIKR
notes: Full-length IgG, IgG1 heavy chain; also called VH1 + VL4 (A5)
In the case of B12, in the assay with Peptide-biotin [1], binding was characterised by a dissociation constant (Kd) of 9.96 nM, the koff was 0.00217 s⁻¹ and the kon came to 217000 M⁻¹ s⁻¹. The binding result in assay [2] was “binds”.

B13: humanized anti-TRPM4 antibody clone A6 (VH2 + VL1) (antibody, V domains shown)
VH: QVQLQESGPGLVKPSQTLSLTCTVSGYSITSDYAWNWIRQHPGKGLEWMGYLSYSGVTSYNPSLKGRVTISRDTSKNQFSLKLSSVTAADTAVYYCARKGTYYRYEGSYWYFDVWGQGTTVTVSS
VL: DIQMTQSPSSLSASVGDRVTITCHANQNIDVWLSWYQQKPGKAPKLLIYKTSNLHTGVPSRFSGSGSGTDFTFTISSLQPEDIATYYCQQGQSYPLTFGGGTKLEIKR
notes: Full-length IgG, IgG1 heavy chain; also called VH2 + VL1 (A6)
In the assay with Peptide-biotin [1], B13 returned a Kd of 10.6 nM, a koff of 0.00195 s⁻¹ and a kon of 184000 M⁻¹ s⁻¹. Also, in the assay with Peptide-biotin [3], binding was put at a Kd of 4.02 nM, the koff worked out at 0.000662 s⁻¹ and the kon was determined as 165000 M⁻¹ s⁻¹. Moreover, the binding result in assay [2] is recorded as “binds”.

B14: humanized anti-TRPM4 antibody clone A7 (VH2 + VL2) (antibody, V domains shown)
VH: QVQLQESGPGLVKPSQTLSLTCTVSGYSITSDYAWNWIRQHPGKGLEWMGYLSYSGVTSYNPSLKGRVTISRDTSKNQFSLKLSSVTAADTAVYYCARKGTYYRYEGSYWYFDVWGQGTTVTVSS
VL: DIQMTQSPSSLSASVGDRVTITCHANQNIDVWLSWYQQKPGKAPKLLIYKTSNLHTGVPSRFSGSGSGTDFTLTISSLQPEDIATYYCQQGQSYPLTFGGGTKLEIKR
notes: Full-length IgG, IgG1 heavy chain; also called VH2 + VL2 (A7)
As for B14, in the assay with Peptide-biotin [1], the Kd was determined as 11.5 nM, the koff came to 0.00295 s⁻¹ and the kon turned out to be 256000 M⁻¹ s⁻¹. In addition, the binding result in assay [2] is on record as “binds”.

B15: humanized anti-TRPM4 antibody clone A4 (VH1 + VL3) (antibody, V domains shown)
VH: QVQLQESGPGLVKPSQTLSLTCTVSGYSITSDYAWNWIRQHPGKGLEWIGYLSYSGVTSYNPSLKGRVTISVDTSKNQFSLKLSSVTAADTAVYYCARKGTYYRYEGSYWYFDVWGQGTTVTVSS
VL: DIQMTQSPSSLSASVGDRVTITCHANQNIDVWLSWYQQKPGNAPKLLIYKTSNLHTGVPSRFSGSGSGTDFTFTISSLQPEDIATYYCQQGQSYPLTFGGGTKLEIKR
notes: Full-length IgG, IgG1 heavy chain; also called VH1 + VL3 (A4)
In the assay with Peptide-biotin [1], B15 displayed a Kd of 7 nM, a koff of 0.00177 s⁻¹ and a kon of 252000 M⁻¹ s⁻¹. For the same molecule, in the assay with Peptide-biotin [3], the affinity, expressed as Kd, was 3.18 nM; the koff is 0.00062 s⁻¹; the kon is 195000 M⁻¹ s⁻¹. In addition, the binding result in assay [2] is listed as “binds”.
